Molecular target: T1, biotinylated recombinant human PSMA-human IgG1 Fc fusion protein (human, UniProt Q04609 44-750, biotinylated (sites not given))
T1 construct: Staining reagent; not shown: human IgG1 Fc
Test: flow cytometry, reporter Jurkat cells co-expressing P-CAR1 (FIGS. 1-4)

T1 sequence (Q04609 44-750 limits assumed): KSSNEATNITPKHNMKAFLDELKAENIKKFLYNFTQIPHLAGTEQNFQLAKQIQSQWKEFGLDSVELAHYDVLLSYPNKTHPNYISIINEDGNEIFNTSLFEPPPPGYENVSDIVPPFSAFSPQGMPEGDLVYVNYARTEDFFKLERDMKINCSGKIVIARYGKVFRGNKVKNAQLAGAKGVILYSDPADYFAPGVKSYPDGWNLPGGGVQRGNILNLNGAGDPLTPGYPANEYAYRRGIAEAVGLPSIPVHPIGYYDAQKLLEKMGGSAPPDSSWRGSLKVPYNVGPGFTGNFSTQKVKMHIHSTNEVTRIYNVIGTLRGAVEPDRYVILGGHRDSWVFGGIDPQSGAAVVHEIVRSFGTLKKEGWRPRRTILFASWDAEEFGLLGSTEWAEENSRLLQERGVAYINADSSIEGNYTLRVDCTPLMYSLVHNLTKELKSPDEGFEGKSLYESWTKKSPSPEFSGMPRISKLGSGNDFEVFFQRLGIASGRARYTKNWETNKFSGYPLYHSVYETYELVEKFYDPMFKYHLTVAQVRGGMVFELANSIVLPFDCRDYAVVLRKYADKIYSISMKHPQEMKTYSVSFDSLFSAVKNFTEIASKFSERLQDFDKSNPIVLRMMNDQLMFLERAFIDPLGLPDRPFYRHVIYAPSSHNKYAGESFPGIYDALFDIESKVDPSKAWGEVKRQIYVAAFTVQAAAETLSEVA

Binder	binding result
N-CAR PD1-KIR2DL2 (SEQ ID No 1999 with intracellular domain SEQ ID No 2017) (other) EVQLQQSGPELVKPGTSVRISCKTSGYTFTEYTIHWVKQSHGKSLEWIGNINPNNGGTTYNQKFEDKATLTVDKSSSTAYMELRSLTSEDSAVYYCAAGWNFDYWGQGTTVTVSSGGGGSGGGGSGGGGSDIVMTQSHKFMSTSVGDRVSIICKASQDVGTAVDWYQQKPGQSPKLLIYWASTRHTGVPDRFTGSGSGTDFTLTITNVQSEDLADYFCQQYNSYPLTFGAGTMLDLKRAAATERRAEVPTAHPSPSPRPAGQFQTLVVGVVGGLLGSLVLLVWVLAVICSRAARGTIGARRTGQPLKEDPSAVPVFSVDYGELDFQWREKTPEPPVPCVPEQTEYATIVFPSGMGTSSPARRGSADGPRSAQPLRPEDGHCSWPLHRWCSNKKNAAVMDQESAGNRTANSEDSDEQDPQEVTYTQLNHCVFTQRKITRPSQRPKTPPTDIIVYAELPNAESRSKVVSCP	binds
N-CAR PD1 (ITSM mut 1) (SEQ ID No 1999 with intracellular domain SEQ ID No 2014) (other) EVQLQQSGPELVKPGTSVRISCKTSGYTFTEYTIHWVKQSHGKSLEWIGNINPNNGGTTYNQKFEDKATLTVDKSSSTAYMELRSLTSEDSAVYYCAAGWNFDYWGQGTTVTVSSGGGGSGGGGSGGGGSDIVMTQSHKFMSTSVGDRVSIICKASQDVGTAVDWYQQKPGQSPKLLIYWASTRHTGVPDRFTGSGSGTDFTLTITNVQSEDLADYFCQQYNSYPLTFGAGTMLDLKRAAATERRAEVPTAHPSPSPRPAGQFQTLVVGVVGGLLGSLVLLVWVLAVICSRAARGTIGARRTGQPLKEDPSAVPVFSVDYGELDFQWREKTPEPPVPCVPEQTEYSEIVFPSGMGTSSPARRGSADGPRSAQPLRPEDGHCSWPL	binds
N-CAR CD300LF (SEQ ID No 1999 with intracellular domain SEQ ID No 2007) (other) EVQLQQSGPELVKPGTSVRISCKTSGYTFTEYTIHWVKQSHGKSLEWIGNINPNNGGTTYNQKFEDKATLTVDKSSSTAYMELRSLTSEDSAVYYCAAGWNFDYWGQGTTVTVSSGGGGSGGGGSGGGGSDIVMTQSHKFMSTSVGDRVSIICKASQDVGTAVDWYQQKPGQSPKLLIYWASTRHTGVPDRFTGSGSGTDFTLTITNVQSEDLADYFCQQYNSYPLTFGAGTMLDLKRAAATERRAEVPTAHPSPSPRPAGQFQTLVVGVVGGLLGSLVLLVWVLAVIWRMMKYQQKAAGMSPEQVLQPLEGDLCYADLTLQLAGTSPQKATTKLSSAQVDQVEVEYVTMASLPKEDISYASLTLGAEDQEPTYCNMGHLSSHLPGRGPEEPTEYSTISRP	binds
N-CAR PD1-L2-ITSM (SEQ ID No 1999 with intracellular domain SEQ ID No 2012) (other) EVQLQQSGPELVKPGTSVRISCKTSGYTFTEYTIHWVKQSHGKSLEWIGNINPNNGGTTYNQKFEDKATLTVDKSSSTAYMELRSLTSEDSAVYYCAAGWNFDYWGQGTTVTVSSGGGGSGGGGSGGGGSDIVMTQSHKFMSTSVGDRVSIICKASQDVGTAVDWYQQKPGQSPKLLIYWASTRHTGVPDRFTGSGSGTDFTLTITNVQSEDLADYFCQQYNSYPLTFGAGTMLDLKRAAATERRAEVPTAHPSPSPRPAGQFQTLVVGVVGGLLGSLVLLVWVLAVICSRAARGTIGARRTGQPLKEDPSAVPVFSVDYGELDFQWREKTPEPPVPCVPEQTEYATIDFQWREKTPEPPVPCVPEQTEYATIVFPSGMGTSSPARRGSADGPRSAQPLRPEDGHCSWPL	binds
N-CAR SIGLEC9 (SEQ ID No 1999 with intracellular domain SEQ ID No 2010) (other) EVQLQQSGPELVKPGTSVRISCKTSGYTFTEYTIHWVKQSHGKSLEWIGNINPNNGGTTYNQKFEDKATLTVDKSSSTAYMELRSLTSEDSAVYYCAAGWNFDYWGQGTTVTVSSGGGGSGGGGSGGGGSDIVMTQSHKFMSTSVGDRVSIICKASQDVGTAVDWYQQKPGQSPKLLIYWASTRHTGVPDRFTGSGSGTDFTLTITNVQSEDLADYFCQQYNSYPLTFGAGTMLDLKRAAATERRAEVPTAHPSPSPRPAGQFQTLVVGVVGGLLGSLVLLVWVLAVIVRSCRKKSARPAAGVGDTGIEDANAVRGSASQGPLTEPWAEDSPPDQPPPASARSSVGEGELQYASLSFQMVKPWDSRGQEATDTEYSEIKIHR	binds

Results, then the binder that gave them:

binding result	Binder
binds	N-CAR PECAM (SEQ ID No 1999 with intracellular domain SEQ ID No 2009) (other) EVQLQQSGPELVKPGTSVRISCKTSGYTFTEYTIHWVKQSHGKSLEWIGNINPNNGGTTYNQKFEDKATLTVDKSSSTAYMELRSLTSEDSAVYYCAAGWNFDYWGQGTTVTVSSGGGGSGGGGSGGGGSDIVMTQSHKFMSTSVGDRVSIICKASQDVGTAVDWYQQKPGQSPKLLIYWASTRHTGVPDRFTGSGSGTDFTLTITNVQSEDLADYFCQQYNSYPLTFGAGTMLDLKRAAATERRAEVPTAHPSPSPRPAGQFQTLVVGVVGGLLGSLVLLVWVLAVIKCYFLRKAKAKQMPVEMSRPAVPLLNSNNEKMSDPNMEANSHYGHNDDVRNHAMKPINDNKEPLNSDVQYTEVQVSSAESHKDLGKKDTETVYSEVRKAVPDAVESRYSRTEGSLDGT
binds	N-CAR LY9 (SEQ ID No 1999 with intracellular domain SEQ ID No 2008) (other) EVQLQQSGPELVKPGTSVRISCKTSGYTFTEYTIHWVKQSHGKSLEWIGNINPNNGGTTYNQKFEDKATLTVDKSSSTAYMELRSLTSEDSAVYYCAAGWNFDYWGQGTTVTVSSGGGGSGGGGSGGGGSDIVMTQSHKFMSTSVGDRVSIICKASQDVGTAVDWYQQKPGQSPKLLIYWASTRHTGVPDRFTGSGSGTDFTLTITNVQSEDLADYFCQQYNSYPLTFGAGTMLDLKRAAATERRAEVPTAHPSPSPRPAGQFQTLVVGVVGGLLGSLVLLVWVLAVIKRKGRCSVPAFCSSQAEAPADTPEPTAGHTLYSVLSQGYEKLDTPLRPARQQPTPTSDSSSDSNLTTEEDEDRPEVHKPISGRYEVFDQVTQEGAGHDPAPEGQADYDPVTPYVTEVESVVGENTMYAQVFNLQGKTPVSQKEESSATIYCSIRKPQVVPPPQQNDLEIPESPTYENFT
binds	N-CAR PD1 (ITSM mut 2) (SEQ ID No 1999 with intracellular domain SEQ ID No 2015) (other) EVQLQQSGPELVKPGTSVRISCKTSGYTFTEYTIHWVKQSHGKSLEWIGNINPNNGGTTYNQKFEDKATLTVDKSSSTAYMELRSLTSEDSAVYYCAAGWNFDYWGQGTTVTVSSGGGGSGGGGSGGGGSDIVMTQSHKFMSTSVGDRVSIICKASQDVGTAVDWYQQKPGQSPKLLIYWASTRHTGVPDRFTGSGSGTDFTLTITNVQSEDLADYFCQQYNSYPLTFGAGTMLDLKRAAATERRAEVPTAHPSPSPRPAGQFQTLVVGVVGGLLGSLVLLVWVLAVICSRAARGTIGARRTGQPLKEDPSAVPVFSVDYGELDFQWREKTPEPPVPCVPEQTEYSEVVFPSGMGTSSPARRGSADGPRSAQPLRPEDGHCSWPL
binds	N-CAR PD1 (ITSM mut3) (SEQ ID No 1999 with intracellular domain SEQ ID No 2016) (other) EVQLQQSGPELVKPGTSVRISCKTSGYTFTEYTIHWVKQSHGKSLEWIGNINPNNGGTTYNQKFEDKATLTVDKSSSTAYMELRSLTSEDSAVYYCAAGWNFDYWGQGTTVTVSSGGGGSGGGGSGGGGSDIVMTQSHKFMSTSVGDRVSIICKASQDVGTAVDWYQQKPGQSPKLLIYWASTRHTGVPDRFTGSGSGTDFTLTITNVQSEDLADYFCQQYNSYPLTFGAGTMLDLKRAAATERRAEVPTAHPSPSPRPAGQFQTLVVGVVGGLLGSLVLLVWVLAVICSRAARGTIGARRTGQPLKEDPSAVPVFSVDYGELDFQWREKTPEPPVPCVPEQTEYASIVFPSGMGTSSPARRGSADGPRSAQPLRPEDGHCSWPL
binds	N-CAR PD1-L2-ITSM-L2-ITSM (SEQ ID No 1999 with intracellular domain SEQ ID No 2013) (other) EVQLQQSGPELVKPGTSVRISCKTSGYTFTEYTIHWVKQSHGKSLEWIGNINPNNGGTTYNQKFEDKATLTVDKSSSTAYMELRSLTSEDSAVYYCAAGWNFDYWGQGTTVTVSSGGGGSGGGGSGGGGSDIVMTQSHKFMSTSVGDRVSIICKASQDVGTAVDWYQQKPGQSPKLLIYWASTRHTGVPDRFTGSGSGTDFTLTITNVQSEDLADYFCQQYNSYPLTFGAGTMLDLKRAAATERRAEVPTAHPSPSPRPAGQFQTLVVGVVGGLLGSLVLLVWVLAVICSRAARGTIGARRTGQPLKEDPSAVPVFSVDYGELDFQWREKTPEPPVPCVPEQTEYATIDFQWREKTPEPPVPCVPEQTEYATIDFQWREKTPEPPVPCVPEQTEYATIVFPSGMGTSSPARRGSADGPRSAQPLRPEDGHCSWPL
binds	N-CAR PD1-PD1 (SEQ ID No 1999 with intracellular domain SEQ ID No 2005) (other) EVQLQQSGPELVKPGTSVRISCKTSGYTFTEYTIHWVKQSHGKSLEWIGNINPNNGGTTYNQKFEDKATLTVDKSSSTAYMELRSLTSEDSAVYYCAAGWNFDYWGQGTTVTVSSGGGGSGGGGSGGGGSDIVMTQSHKFMSTSVGDRVSIICKASQDVGTAVDWYQQKPGQSPKLLIYWASTRHTGVPDRFTGSGSGTDFTLTITNVQSEDLADYFCQQYNSYPLTFGAGTMLDLKRAAATERRAEVPTAHPSPSPRPAGQFQTLVVGVVGGLLGSLVLLVWVLAVICSRAARGTIGARRTGQPLKEDPSAVPVFSVDYGELDFQWREKTPEPPVPCVPEQTEYATIVFPSGMGTSSPARRGSADGPRSAQPLRPEDGHCSWPLCSRAARGTIGARRTGQPLKEDPSAVPVFSVDYGELDFQWREKTPEPPVPCVPEQTEYATIVFPSGMGTSSPARRGSADGPRSAQPLRPEDGHCSWPL
binds	N-CAR PD1-TIM3 (SEQ ID No 1999 with intracellular domain SEQ ID No 2006) (other) EVQLQQSGPELVKPGTSVRISCKTSGYTFTEYTIHWVKQSHGKSLEWIGNINPNNGGTTYNQKFEDKATLTVDKSSSTAYMELRSLTSEDSAVYYCAAGWNFDYWGQGTTVTVSSGGGGSGGGGSGGGGSDIVMTQSHKFMSTSVGDRVSIICKASQDVGTAVDWYQQKPGQSPKLLIYWASTRHTGVPDRFTGSGSGTDFTLTITNVQSEDLADYFCQQYNSYPLTFGAGTMLDLKRAAATERRAEVPTAHPSPSPRPAGQFQTLVVGVVGGLLGSLVLLVWVLAVICSRAARGTIGARRTGQPLKEDPSAVPVFSVDYGELDFQWREKTPEPPVPCVPEQTEYATIVFPSGMGTSSPARRGSADGPRSAQPLRPEDGHCSWPLFKWYSHSKEKIQNLSLISLANLPPSGLANAVAEGIRSEENIYTIEENVYEVEEPNEYYCYVSSRQQPSQPLGCRFAMP
binds	N-CAR SIRPA (SEQ ID No 1999 with intracellular domain SEQ ID No 2011) (other) EVQLQQSGPELVKPGTSVRISCKTSGYTFTEYTIHWVKQSHGKSLEWIGNINPNNGGTTYNQKFEDKATLTVDKSSSTAYMELRSLTSEDSAVYYCAAGWNFDYWGQGTTVTVSSGGGGSGGGGSGGGGSDIVMTQSHKFMSTSVGDRVSIICKASQDVGTAVDWYQQKPGQSPKLLIYWASTRHTGVPDRFTGSGSGTDFTLTITNVQSEDLADYFCQQYNSYPLTFGAGTMLDLKRAAATERRAEVPTAHPSPSPRPAGQFQTLVVGVVGGLLGSLVLLVWVLAVIRIRQKKAQGSTSSTRLHEPEKNAREITQDTNDITYADLNLPKGKKPAPQAAEPNNHTEYASIQTSPQPASEDTLTYADLDMVHLNRTPKQPAPKPEPSFSEYASVQVPRK
